system: Escherichia coli TOP10; test: shrunken log2 fold change of peptide-encoding DNA abundance (4.5 h post-induction vs induction); higher = less antimicrobial activity (less host growth inhibition); conditions: time post-induction: 4.5 h; library: site-saturation at positions 5, 18, 19, 20
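Also: peptides expressed intracellularly from a pBAD plasmid library in pooled LB shake-flask culture, induced with 0.3% L-arabinose, DNA abundance read by NGS, three biological replicates, DESeq2 with apeglm shrinkage.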

Row | Sequence | shrunken log2 fold change
1 | RRIRNRPPRLPRPRPRPFEQPRP | -0.0506
2 | RRIRNRPPRLPRPRPRPFEYPRP | -0.266
3 | RRIRNRPPRLPRPRPRPFFGPRP | 0.239
4 | RRIRNRPPRLPRPRPRPFHYPRP | -0.925
5 | RRIRNRPPRLPRPRPRPFIAPRP | -0.32
6 | RRIRNRPPRLPRPRPRPFIDPRP | -0.114
7 | RRIRNRPPRLPRPRPRPFITPRP | -0.783
8 | RRIRNRPPRLPRPRPRPFKAPRP | 0.0407
9 | RRIRNRPPRLPRPRPRPFKIPRP | -0.0688
10 | RRIRNRPPRLPRPRPRPFKKPRP | -0.263
11 | RRIRNRPPRLPRPRPRPFLLPRP | -0.295
12 | RRIRNRPPRLPRPRPRPFLQPRP | -0.206
13 | RRIRNRPPRLPRPRPRPFLVPRP | -0.0697
14 | RRIRNRPPRLPRPRPRPFMYPRP | -0.247
15 | RRIRNRPPRLPRPRPRPFPTPRP | 0.00541
16 | RRIRNRPPRLPRPRPRPFPWPRP | -0.084
17 | RRIRNRPPRLPRPRPRPFQWPRP | -0.212
18 | RRIRNRPPRLPRPRPRPFREPRP | -0.0373
19 | RRIRNRPPRLPRPRPRPFSDPRP | -0.246
20 | RRIRNRPPRLPRPRPRPFWWPRP | -0.0225
21 | RRIRNRPPRLPRPRPRPFYYPRP | -0.877
22 | RRIRNRPPRLPRPRPRPGASPRP | 0.412
23 | RRIRNRPPRLPRPRPRPGCQPRP | -0.108
24 | RRIRNRPPRLPRPRPRPGEEPRP | -0.0107
25 | RRIRNRPPRLPRPRPRPGEPPRP | 0.033

Row | Sequence | shrunken log2 fold change
26 | RRIRNRPPRLPRPRPRPGFCPRP | 0.164
27 | RRIRNRPPRLPRPRPRPGGFPRP | 0.144
28 | RRIRNRPPRLPRPRPRPGGPPRP | 0.37
29 | RRIRNRPPRLPRPRPRPGIKPRP | -0.192
30 | RRIRNRPPRLPRPRPRPGKLPRP | -0.0284
31 | RRIRNRPPRLPRPRPRPGKRPRP | 0.00355
32 | RRIRNRPPRLPRPRPRPGKVPRP | -0.123
33 | RRIRNRPPRLPRPRPRPGLDPRP | 0.00266
34 | RRIRNRPPRLPRPRPRPGLNPRP | 0.035
35 | RRIRNRPPRLPRPRPRPGMEPRP | -0.0302
36 | RRIRNRPPRLPRPRPRPGNKPRP | -0.408
37 | RRIRNRPPRLPRPRPRPGQGPRP | -0.0357
38 | RRIRNRPPRLPRPRPRPGQHPRP | 0.128
39 | RRIRNRPPRLPRPRPRPGQIPRP | 0.0192
40 | RRIRNRPPRLPRPRPRPGQPPRP | 0.0308
41 | RRIRNRPPRLPRPRPRPGRGPRP | 0.918
42 | RRIRNRPPRLPRPRPRPGSCPRP | -0.247
43 | RRIRNRPPRLPRPRPRPGTGPRP | -0.127
44 | RRIRNRPPRLPRPRPRPGTKPRP | 0.0372
45 | RRIRNRPPRLPRPRPRPGYCPRP | -0.369
46 | RRIRNRPPRLPRPRPRPGYWPRP | 0.168
47 | RRIRNRPPRLPRPRPRPHCHPRP | -0.398
48 | RRIRNRPPRLPRPRPRPHDGPRP | -0.378
49 | RRIRNRPPRLPRPRPRPHDWPRP | 0.263
50 | RRIRNRPPRLPRPRPRPHETPRP | -0.127

Row | Sequence | shrunken log2 fold change
51 | RRIRNRPPRLPRPRPRPHGPPRP | 0.115
52 | RRIRNRPPRLPRPRPRPHGTPRP | -0.105
53 | RRIRNRPPRLPRPRPRPHHNPRP | -0.869
54 | RRIRNRPPRLPRPRPRPHIVPRP | -0.249
55 | RRIRNRPPRLPRPRPRPHKGPRP | -0.014
56 | RRIRNRPPRLPRPRPRPHLAPRP | 0.131
57 | RRIRNRPPRLPRPRPRPHMVPRP | -0.13
58 | RRIRNRPPRLPRPRPRPHNQPRP | -0.7
59 | RRIRNRPPRLPRPRPRPHPKPRP | 0.187
60 | RRIRNRPPRLPRPRPRPHRLPRP | -0.00303
61 | RRIRNRPPRLPRPRPRPHSLPRP | -0.117
62 | RRIRNRPPRLPRPRPRPHWVPRP | -0.0512
63 | RRIRNRPPRLPRPRPRPHYFPRP | -0.0132
64 | RRIRNRPPRLPRPRPRPHYRPRP | -0.0488
65 | RRIRNRPPRLPRPRPRPHYVPRP | -0.121
66 | RRIRNRPPRLPRPRPRPIAWPRP | 0.228
67 | RRIRNRPPRLPRPRPRPICLPRP | 0.00214
68 | RRIRNRPPRLPRPRPRPIDCPRP | -0.248
69 | RRIRNRPPRLPRPRPRPIDEPRP | -0.0586
70 | RRIRNRPPRLPRPRPRPIEHPRP | -0.307
71 | RRIRNRPPRLPRPRPRPIEKPRP | -0.0498
72 | RRIRNRPPRLPRPRPRPIEWPRP | -0.00176
73 | RRIRNRPPRLPRPRPRPIGKPRP | -0.0902
74 | RRIRNRPPRLPRPRPRPIGLPRP | -0.123
75 | RRIRNRPPRLPRPRPRPIHHPRP | -0.383

Row | Sequence | shrunken log2 fold change
76 | RRIRNRPPRLPRPRPRPIHTPRP | -0.0125
77 | RRIRNRPPRLPRPRPRPIHYPRP | -0.285
78 | RRIRNRPPRLPRPRPRPIIMPRP | -0.729
79 | RRIRNRPPRLPRPRPRPIIYPRP | -1.06
80 | RRIRNRPPRLPRPRPRPILEPRP | 0.109
81 | RRIRNRPPRLPRPRPRPILNPRP | -0.353
82 | RRIRNRPPRLPRPRPRPIMAPRP | -0.187
83 | RRIRNRPPRLPRPRPRPIMCPRP | -0.148
84 | RRIRNRPPRLPRPRPRPIMPPRP | -0.225
85 | RRIRNRPPRLPRPRPRPINHPRP | -0.705
86 | RRIRNRPPRLPRPRPRPINWPRP | -0.133
87 | RRIRNRPPRLPRPRPRPIPIPRP | -0.0823
88 | RRIRNRPPRLPRPRPRPIRNPRP | -0.422
89 | RRIRNRPPRLPRPRPRPIRPPRP | -0.00213
90 | RRIRNRPPRLPRPRPRPIRQPRP | 0.0261
91 | RRIRNRPPRLPRPRPRPIRVPRP | -0.0394
92 | RRIRNRPPRLPRPRPRPISCPRP | -0.205
93 | RRIRNRPPRLPRPRPRPISPPRP | -0.13
94 | RRIRNRPPRLPRPRPRPITAPRP | -0.132
95 | RRIRNRPPRLPRPRPRPITSPRP | -0.282
96 | RRIRNRPPRLPRPRPRPITWPRP | -0.0587
97 | RRIRNRPPRLPRPRPRPIVKPRP | -0.339
98 | RRIRNRPPRLPRPRPRPIVLPRP | -0.211
99 | RRIRNRPPRLPRPRPRPIVPPRP | -0.382
100 | RRIRNRPPRLPRPRPRPIVQPRP | -0.236

Row | Sequence | shrunken log2 fold change
101 | RRIRNRPPRLPRPRPRPIWFPRP | 0.205
102 | RRIRNRPPRLPRPRPRPIYVPRP | -0.892
103 | RRIRNRPPRLPRPRPRPKALPRP | 0.0983
104 | RRIRNRPPRLPRPRPRPKHIPRP | -0.438
105 | RRIRNRPPRLPRPRPRPKKEPRP | 0.0493
106 | RRIRNRPPRLPRPRPRPKMDPRP | 0.0178
107 | RRIRNRPPRLPRPRPRPKMQPRP | -0.0708
108 | RRIRNRPPRLPRPRPRPKPAPRP | 0.601
109 | RRIRNRPPRLPRPRPRPKPYPRP | -0.342
110 | RRIRNRPPRLPRPRPRPKRFPRP | 0.0343
111 | RRIRNRPPRLPRPRPRPKTQPRP | -0.0734
112 | RRIRNRPPRLPRPRPRPKVVPRP | 0.0279
113 | RRIRNRPPRLPRPRPRPKVYPRP | -0.406
114 | RRIRNRPPRLPRPRPRPKYAPRP | -0.292
115 | RRIRNRPPRLPRPRPRPKYCPRP | -0.225
116 | RRIRNRPPRLPRPRPRPKYQPRP | -0.0997
117 | RRIRNRPPRLPRPRPRPLADPRP | -0.00474
118 | RRIRNRPPRLPRPRPRPLAEPRP | 0.108
119 | RRIRNRPPRLPRPRPRPLAIPRP | 0.0449
120 | RRIRNRPPRLPRPRPRPLATPRP | 0.292
121 | RRIRNRPPRLPRPRPRPLCPPRP | -0.141
122 | RRIRNRPPRLPRPRPRPLDPPRP | -0.117
123 | RRIRNRPPRLPRPRPRPLEAPRP | -0.00641
124 | RRIRNRPPRLPRPRPRPLETPRP | -0.0418
125 | RRIRNRPPRLPRPRPRPLGIPRP | -0.169

Row | Sequence | shrunken log2 fold change
126 | RRIRNRPPRLPRPRPRPLPHPRP | -0.387
127 | RRIRNRPPRLPRPRPRPLPLPRP | 0.187
128 | RRIRNRPPRLPRPRPRPLQHPRP | 0.198
129 | RRIRNRPPRLPRPRPRPLRFPRP | 0.426
130 | RRIRNRPPRLPRPRPRPLSSPRP | -0.0989
131 | RRIRNRPPRLPRPRPRPLTAPRP | -0.221
132 | RRIRNRPPRLPRPRPRPLTMPRP | -0.429
133 | RRIRNRPPRLPRPRPRPLVDPRP | 0.0463
134 | RRIRNRPPRLPRPRPRPLYHPRP | -0.941
135 | RRIRNRPPRLPRPRPRPLYIPRP | -0.826
136 | RRIRNRPPRLPRPRPRPMFIPRP | -0.383
137 | RRIRNRPPRLPRPRPRPMGFPRP | -0.0516
138 | RRIRNRPPRLPRPRPRPMGSPRP | -0.01
139 | RRIRNRPPRLPRPRPRPMGWPRP | -0.00822
140 | RRIRNRPPRLPRPRPRPMKCPRP | 0.0131
141 | RRIRNRPPRLPRPRPRPMKHPRP | -0.705
142 | RRIRNRPPRLPRPRPRPMKPPRP | -0.00018
143 | RRIRNRPPRLPRPRPRPMLVPRP | -0.0299
144 | RRIRNRPPRLPRPRPRPMMDPRP | -0.425
145 | RRIRNRPPRLPRPRPRPMMPPRP | -0.0635
146 | RRIRNRPPRLPRPRPRPMPKPRP | -0.0238
147 | RRIRNRPPRLPRPRPRPMQSPRP | -0.0939
148 | RRIRNRPPRLPRPRPRPMTDPRP | -0.088
149 | RRIRNRPPRLPRPRPRPMTKPRP | 0.116
150 | RRIRNRPPRLPRPRPRPMTNPRP | 0.454
